Reference: PMC4439027, “Selection of scFv Antibody Fragments Binding to Human Blood versus Lymphatic Endothelial Surface Antigens by Direct Cell Phage Display” (PLoS ONE, 2015)

How the values were obtained:
[1] = target: T1, Recombinant human CD146 comprising the extracellular Met1-Gly559 portion of the protein precursor, C-terminal … (Homo sapiens, UniProt P43121-1); assay: ELISA; plates coated with recombinant CD146 or BSA at 100, 10 and 1 ng/ml overnight at 4°C, blocked with TBST/ 5% BSA; scFv or scFv-Fc added serially diluted, RT overnight; HRP-conjugated detection antibodies, absorbance at 450 nm; details: both partners purified
T1 construct: signal peptide in the construct; human CD146 / MCAM / MUC18, extracellular Met1-Gly559 portion of the protein precursor (NP_006491.2); also called recombinant CD146; extracellular domain of recombinant human CD146; source: bought: Sino Biological Inc., Nr; 10115-H08H

[2] = target: T2, CD146 / MCAM on BECs and melanoma cells (Homo sapiens, UniProt P43121-1); assay: immunostaining of cells or tissue; immunofluorescence on fixed cells (BECs, LECs, HDMECs, melanoma cells) and human skin cryosections, co-staining with anti-podoplanin or commercial anti-CD146 antibody; details: one partner purified
T2 construct: also called native CD146; CD146 expressed by BECs, melanoma cells; source: endogenous, on BECs and melanoma cell lines A375, CRL1676, HTB71 (fixed monolayers)

[3] = target: T2, CD146 / MCAM on BECs and melanoma cells; assay: ELISA; whole cell ELISA on confluent monolayers in 96-well plates fixed with PBS/ 1% PFA; purified scFv or scFv-Fc added; absorbance at 450 nm; details: one partner purified
[4] = target: T3, CD146 of BEC lysate treated with PNGase F (N-linked oligosaccharides removed) (Homo sapiens, UniProt P43121-1, oligosaccharides removed from N-linked glycoprotein with PNGase F); assay: co-IP; BEC lysate incubated with scFv or scFv-Fc (or Fc only) at 4°C overnight, captured on Protein A/G resin; Western blot in reducing conditions with commercial anti-CD146 antibody; lysates with or without PNGase F, before or after addition of the scFv; details: one partner purified
T3 construct: human CD146 / MCAM (NP_006491), endogenous in primary human blood endothelial cells, after PNGase F; band shifted down to 95 kDa; PNGase F was added before or after the scFv; also called deglycosylated CD146; source: endogenous, BEC lysate, treated with PNGase F (3 hrs at 37°C)
T3 sequence (P43121 24-646): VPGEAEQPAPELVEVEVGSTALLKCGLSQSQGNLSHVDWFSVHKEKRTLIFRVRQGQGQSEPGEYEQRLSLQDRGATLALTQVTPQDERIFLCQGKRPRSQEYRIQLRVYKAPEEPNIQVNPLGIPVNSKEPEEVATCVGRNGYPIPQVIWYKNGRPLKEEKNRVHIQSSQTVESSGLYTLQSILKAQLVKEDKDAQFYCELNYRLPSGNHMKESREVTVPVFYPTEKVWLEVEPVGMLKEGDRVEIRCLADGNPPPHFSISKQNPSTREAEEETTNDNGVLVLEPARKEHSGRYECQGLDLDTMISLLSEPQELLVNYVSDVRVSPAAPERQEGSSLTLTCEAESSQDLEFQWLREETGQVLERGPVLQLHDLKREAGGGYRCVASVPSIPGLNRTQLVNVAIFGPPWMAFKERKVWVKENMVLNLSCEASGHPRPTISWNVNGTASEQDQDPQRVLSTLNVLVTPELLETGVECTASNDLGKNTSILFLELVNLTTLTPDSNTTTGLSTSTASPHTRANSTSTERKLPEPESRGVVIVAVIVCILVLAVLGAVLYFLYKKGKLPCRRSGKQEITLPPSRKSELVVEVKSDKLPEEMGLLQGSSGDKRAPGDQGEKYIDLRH

T1 sequence (P43121 24-559): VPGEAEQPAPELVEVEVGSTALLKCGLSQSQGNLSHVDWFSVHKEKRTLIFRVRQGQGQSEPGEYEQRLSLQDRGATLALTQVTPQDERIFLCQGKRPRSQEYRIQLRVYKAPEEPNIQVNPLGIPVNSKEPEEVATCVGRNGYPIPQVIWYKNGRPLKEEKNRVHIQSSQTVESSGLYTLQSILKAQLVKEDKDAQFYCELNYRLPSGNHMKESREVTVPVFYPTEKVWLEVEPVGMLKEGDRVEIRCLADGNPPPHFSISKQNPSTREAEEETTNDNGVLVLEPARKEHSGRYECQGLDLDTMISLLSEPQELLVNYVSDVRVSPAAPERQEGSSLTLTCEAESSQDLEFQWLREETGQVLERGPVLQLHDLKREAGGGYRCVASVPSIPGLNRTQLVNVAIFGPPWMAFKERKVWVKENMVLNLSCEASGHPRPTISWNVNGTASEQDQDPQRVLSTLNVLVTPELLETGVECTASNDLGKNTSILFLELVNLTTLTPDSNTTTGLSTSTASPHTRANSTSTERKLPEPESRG
T2 sequence (P43121 24-646): as the sequence (P43121 24-646) above

Binder | binding result [1] | binding result [2] | binding result [3] | binding result [4]
scFv-Fc B6-11 fusion antibody (Fc fusion, human, Runs as a dimer under non-reducing SDS-PAGE; the Fc is that of the vector pFUSE-mIgG2B-Fc2 (Invivogen); also called scFv-mFc fusion antibody; source: HEK293, transfected (pFUSE-mIgG2B-Fc2), purified from culture supernatants (proteinAG UltraLink Resin); not shown: Fc (murine IgG2B), C-terminal, kept) VH: EVQLVESGGGLVQGGSLRLSCAASGFTFSSYAMSWVRQAPGKGLEWVSAISGSGGSTYYADSVKGRFTISRDNSKNTLYLQMNSLRAEDTAVYYCAKSSNVRTFDYWGQGTLVTVSR VL: SSELTQDPAVSVALGQTVRITCQGDSLRSYYASWYQQKPGQAPVLVIYGKNNRPSGIPDRFSGSSSGNTASLTITGAQAEDEADYYCNSSTPLSAPVVFGGGTKLTVL | binds | binds | – | –
scFv B6-11 (scFv, V domains shown, VH of scFv B6-11 (ETH-2 library, human germline heavy chain segment with randomised CDR3); linker region; VL of scFv B6-11 (ETH-2 library, human germline light chain segment with randomised CDR3); Selected from the semi-synthetic human ETH-2 phage library on BECs (round 6); His-tag and Flag-tag come from phagemid pDN332; also called scFv B6-11 antibody; anti-CD146 scFv B6-11; source: E. coli TG1, …) VH: EVQLVESGGGLVQGGSLRLSCAASGFTFSSYAMSWVRQAPGKGLEWVSAISGSGGSTYYADSVKGRFTISRDNSKNTLYLQMNSLRAEDTAVYYCAKSSNVRTFDYWGQGTLVTVSR VL: SSELTQDPAVSVALGQTVRITCQGDSLRSYYASWYQQKPGQAPVLVIYGKNNRPSGIPDRFSGSSSGNTASLTITGAQAEDEADYYCNSSTPLSAPVVFGGGTKLTVL | binds | – | binds | binds
